Square brackets hold non-standard residues; d marks the D form. Primed or numbered codes have the meaning given here. m‑dPEG(4) = m-dPEG(4) acid, coupled to Acp, with Acp forms R^111 of Formula (4); 2Nal = N[C@@H](Cc1ccc2ccccc2c1)C(=O)O; Chg = N[C@H](C(=O)O)C1CCCCC1; Ahx = NCCCCCC(=O)O
B1: nPDM-66 (peptide)
peptide: H-WYIRWIK[Chg]QIWSK[Chg]RL-NH2
SMILES: CC[C@H](C)[C@H](NC(=O)[C@H](CCC(N)=O)NC(=O)[C@@H](NC(=O)[C@H](CCCCN)NC(=O)[C@@H](NC(=O)[C@H](Cc1c[nH]c2ccccc12)NC(=O)[C@H](CCCNC(=N)N)NC(=O)[C@@H](NC(=O)[C@H](Cc1ccc(O)cc1)NC(=O)[C@@H](N)Cc1c[nH]c2ccccc12)[C@@H](C)CC)[C@@H](C)CC)C1CCCCC1)C(=O)N[C@@H](Cc1c[nH]c2ccccc12)C(=O)N[C@@H](CO)C(=O)N[C@@H](CCCCN)C(=O)N[C@H](C(=O)N[C@@H](CCCNC(=N)N)C(=O)N[C@@H](CC(C)C)C(N)=O)C1CCCCC1
B2: nPDM-71 (peptide)
peptide: H-WYIRWIR[Chg]QIWSK[Chg]RL-NH2
SMILES: CC[C@H](C)[C@H](NC(=O)[C@H](CCC(N)=O)NC(=O)[C@@H](NC(=O)[C@H](CCCNC(=N)N)NC(=O)[C@@H](NC(=O)[C@H](Cc1c[nH]c2ccccc12)NC(=O)[C@H](CCCNC(=N)N)NC(=O)[C@@H](NC(=O)[C@H](Cc1ccc(O)cc1)NC(=O)[C@@H](N)Cc1c[nH]c2ccccc12)[C@@H](C)CC)[C@@H](C)CC)C1CCCCC1)C(=O)N[C@@H](Cc1c[nH]c2ccccc12)C(=O)N[C@@H](CO)C(=O)N[C@@H](CCCCN)C(=O)N[C@H](C(=O)N[C@@H](CCCNC(=N)N)C(=O)N[C@@H](CC(C)C)C(N)=O)C1CCCCC1
B3: nPDM-76 (peptide)
peptide: H-WYIRWIR[Chg]PIWSR[Chg]RL-NH2
SMILES: CC[C@H](C)[C@H](NC(=O)[C@H](Cc1ccc(O)cc1)NC(=O)[C@@H](N)Cc1c[nH]c2ccccc12)C(=O)N[C@@H](CCCNC(=N)N)C(=O)N[C@@H](Cc1c[nH]c2ccccc12)C(=O)N[C@H](C(=O)N[C@@H](CCCNC(=N)N)C(=O)N[C@H](C(=O)N1CCC[C@H]1C(=O)N[C@H](C(=O)N[C@@H](Cc1c[nH]c2ccccc12)C(=O)N[C@@H](CO)C(=O)N[C@@H](CCCNC(=N)N)C(=O)N[C@H](C(=O)N[C@@H](CCCNC(=N)N)C(=O)N[C@@H](CC(C)C)C(N)=O)C1CCCCC1)[C@@H](C)CC)C1CCCCC1)[C@@H](C)CC
B4: nPDM-72 (peptide)
peptide: H-WYIRWIR[Chg]QIWSR[Chg]RL-NH2
SMILES: CC[C@H](C)[C@H](NC(=O)[C@H](CCC(N)=O)NC(=O)[C@@H](NC(=O)[C@H](CCCNC(=N)N)NC(=O)[C@@H](NC(=O)[C@H](Cc1c[nH]c2ccccc12)NC(=O)[C@H](CCCNC(=N)N)NC(=O)[C@@H](NC(=O)[C@H](Cc1ccc(O)cc1)NC(=O)[C@@H](N)Cc1c[nH]c2ccccc12)[C@@H](C)CC)[C@@H](C)CC)C1CCCCC1)C(=O)N[C@@H](Cc1c[nH]c2ccccc12)C(=O)N[C@@H](CO)C(=O)N[C@@H](CCCNC(=N)N)C(=O)N[C@H](C(=O)N[C@@H](CCCNC(=N)N)C(=O)N[C@@H](CC(C)C)C(N)=O)C1CCCCC1
B5: nPDM-69 (peptide)
peptide: H-YYIR[2Nal]IKIQIWSKLRL-NH2
SMILES: CC[C@H](C)[C@H](NC(=O)[C@H](CCC(N)=O)NC(=O)[C@@H](NC(=O)[C@H](CCCCN)NC(=O)[C@@H](NC(=O)[C@H](Cc1ccc2ccccc2c1)NC(=O)[C@H](CCCNC(=N)N)NC(=O)[C@@H](NC(=O)[C@H](Cc1ccc(O)cc1)NC(=O)[C@@H](N)Cc1ccc(O)cc1)[C@@H](C)CC)[C@@H](C)CC)[C@@H](C)CC)C(=O)N[C@@H](Cc1c[nH]c2ccccc12)C(=O)N[C@@H](CO)C(=O)N[C@@H](CCCCN)C(=O)N[C@@H](CC(C)C)C(=O)N[C@@H](CCCNC(=N)N)C(=O)N[C@@H](CC(C)C)C(N)=O
B6: nPDM-75 (peptide)
peptide: H-WYIRWIR[Chg]QIWPR[Chg]RL-NH2
SMILES: CC[C@H](C)[C@H](NC(=O)[C@H](Cc1ccc(O)cc1)NC(=O)[C@@H](N)Cc1c[nH]c2ccccc12)C(=O)N[C@@H](CCCNC(=N)N)C(=O)N[C@@H](Cc1c[nH]c2ccccc12)C(=O)N[C@H](C(=O)N[C@@H](CCCNC(=N)N)C(=O)N[C@H](C(=O)N[C@@H](CCC(N)=O)C(=O)N[C@H](C(=O)N[C@@H](Cc1c[nH]c2ccccc12)C(=O)N1CCC[C@H]1C(=O)N[C@@H](CCCNC(=N)N)C(=O)N[C@H](C(=O)N[C@@H](CCCNC(=N)N)C(=O)N[C@@H](CC(C)C)C(N)=O)C1CCCCC1)[C@@H](C)CC)C1CCCCC1)[C@@H](C)CC
B7: nPDM-70 (peptide)
peptide: H-WYIRWIK[Chg]QIWSR[Chg]RL-NH2
SMILES: CC[C@H](C)[C@H](NC(=O)[C@H](CCC(N)=O)NC(=O)[C@@H](NC(=O)[C@H](CCCCN)NC(=O)[C@@H](NC(=O)[C@H](Cc1c[nH]c2ccccc12)NC(=O)[C@H](CCCNC(=N)N)NC(=O)[C@@H](NC(=O)[C@H](Cc1ccc(O)cc1)NC(=O)[C@@H](N)Cc1c[nH]c2ccccc12)[C@@H](C)CC)[C@@H](C)CC)C1CCCCC1)C(=O)N[C@@H](Cc1c[nH]c2ccccc12)C(=O)N[C@@H](CO)C(=O)N[C@@H](CCCNC(=N)N)C(=O)N[C@H](C(=O)N[C@@H](CCCNC(=N)N)C(=O)N[C@@H](CC(C)C)C(N)=O)C1CCCCC1
B8: nPDM-65 (peptide)
peptide: H-WYIRWIKIQIWSK[Chg]RL-NH2
SMILES: CC[C@H](C)[C@H](NC(=O)[C@H](CCC(N)=O)NC(=O)[C@@H](NC(=O)[C@H](CCCCN)NC(=O)[C@@H](NC(=O)[C@H](Cc1c[nH]c2ccccc12)NC(=O)[C@H](CCCNC(=N)N)NC(=O)[C@@H](NC(=O)[C@H](Cc1ccc(O)cc1)NC(=O)[C@@H](N)Cc1c[nH]c2ccccc12)[C@@H](C)CC)[C@@H](C)CC)[C@@H](C)CC)C(=O)N[C@@H](Cc1c[nH]c2ccccc12)C(=O)N[C@@H](CO)C(=O)N[C@@H](CCCCN)C(=O)N[C@H](C(=O)N[C@@H](CCCNC(=N)N)C(=O)N[C@@H](CC(C)C)C(N)=O)C1CCCCC1

These binders were tested against T1, myostatin (UniProt O14793 267-375, limits assumed) (assay: cell-based or functional assay).
T1 sequence (looked up): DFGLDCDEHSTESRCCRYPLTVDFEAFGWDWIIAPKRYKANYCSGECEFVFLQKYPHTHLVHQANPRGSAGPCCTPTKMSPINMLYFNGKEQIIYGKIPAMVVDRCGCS
In the case of H-WYIRWIR[Chg]QIWSR[Chg]PL-NH2 [nPDM-73], the “myostatin inhibitory activity at 0.3 µM (luciferase reporter assay)” value (shortened to “myostatin inhibitory activity at 0.3 µM”) is reported as at least 40 % inhibition.
In the case of H-WYFRWIKIQIWSKLRL-NH2 [nPDM-67], the “myostatin inhibitory activity at 1 µM (luciferase reporter assay)” value (from here on “myostatin inhibitory activity at 1 µM”) is reported as at least 40 % inhibition.
B1 was tested, and the “myostatin inhibitory activity at 0.3 µM” value was at least 40 % inhibition and the “myostatin inhibitory activity at 1 µM” value was at least 40 % inhibition.
In the case of B2, the “myostatin inhibitory activity at 0.3 µM” value is reported as at least 40 % inhibition.
B3 was tested, and the “myostatin inhibitory activity at 0.3 µM” value was at least 40 % inhibition.
B4 was tested, and the “myostatin inhibitory activity at 0.3 µM” value was at least 40 % inhibition.
B5 was tested, and the “myostatin inhibitory activity at 0.3 µM” value was at least 40 % inhibition and the “myostatin inhibitory activity at 1 µM” value was at least 40 % inhibition.
In the case of {m‑dPEG(4)-Ahx}-YYIEWIKIQIISKLRL-NH2 [PDM-29], the “myostatin inhibitory activity at 1 µM” value is reported as at least 40 % inhibition.
H-AWYIRWIKIQIWSKLRL-NH2 [A-nPDM-55/E31R] was tested, and the “myostatin inhibitory activity at 0.3 µM” value was at least 40 % inhibition.
B6 was tested, and the “myostatin inhibitory activity at 0.3 µM” value was at least 40 % inhibition.
With B7 the “myostatin inhibitory activity at 0.3 µM” value was at least 40 % inhibition.
In the case of B8, the “myostatin inhibitory activity at 0.3 µM” value is reported as at least 40 % inhibition and the “myostatin inhibitory activity at 1 µM” value is reported as at least 40 % inhibition.
In the case of {m‑dPEG(4)-Ahx}-WWIEWIKIQIISKLRL-NH2 [PDM-30], the “myostatin inhibitory activity at 1 µM” value is reported as at least 40 % inhibition.

From US20190177370A1 (TOKYO UNIVERSITY OF PHARMACY AND LIFE SCIENCES, published 2019)
